The values below come from patent publication US20250066490A1 (PROFOUNDBIO US, published 2025).

Assay [1] concerns the target T1, cynomolgus CD70 recombinant protein (cynomolgus, UniProt A0A2K5WTU9 39-190).
T1 construct: also called cyno-antigen; cynomolgus CD70 protein
T1 sequence: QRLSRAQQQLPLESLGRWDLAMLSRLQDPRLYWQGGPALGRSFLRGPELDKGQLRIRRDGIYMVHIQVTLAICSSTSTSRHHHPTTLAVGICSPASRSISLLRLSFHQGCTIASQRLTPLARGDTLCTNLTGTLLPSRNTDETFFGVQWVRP
Put plainly: ELISA, IgG titrated on coated cynomolgus CD70 recombinant protein (2 µg/ml), anti-human Fc-HRP, OD450. The procedure:
(§1) The binding specificity of the CD70 antibodies was tested by ELISA according to a standard protocol. Briefly, 96-well micro-plates were coated with 2 μg/ml of human or cynomolgus CD70 recombinant protein in PBS at 100 μl per well and incubated overnight at 4° C. The plates were washed twice with TBS+0.5% Tween20. 200 μL of blocking buffer (2% BSA in PBS) was added to each well, and the plates were incubated at 37° C. for 2 hours. The plates were washed using the wash buffer mentioned above. Serially diluted antibodies were added to the ELISA plates using 100 μl per well, and the plates were incubated for 1 hour at room temperature. Then plates were washed 3 times. HRP conjugated anti-human Fc antibody solution (Sigma, I18885-2ML, diluted with blocking buffer) was added to the plates using 100 μl per well. The plates were incubated at room temperature for 1 hour and then washed 3 times. Then the TMB solution was added to plates using 100 μl per well and the plates were placed at RT for 5-15 mins. Then the stop solution (2M H2SO4) was added using 50 μl per well. The absorbance was measured at A450 and A630.
On the technique in general: An ELISA detects its analyte on a solid surface through an enzyme-linked reagent.

For assay [2], the target named is T2, CD70 ECD (antigen immobilized on the CM5 chip) (UniProt P32970 39-193).
T2 construct: extracellular domain; also called CD70 antigen
T2 sequence (looked up): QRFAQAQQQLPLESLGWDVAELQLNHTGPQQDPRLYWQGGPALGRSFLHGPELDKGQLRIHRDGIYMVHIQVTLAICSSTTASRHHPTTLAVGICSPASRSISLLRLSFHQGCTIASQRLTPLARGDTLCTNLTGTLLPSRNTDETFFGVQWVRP
Briefly: SPR (Biacore T200), CD70 ECD on CM5 chip, IgG as analyte. How it is done: (§2) The immobilization of antigen CD70 ECD was performed at 25° C. with HBS-EP as the running buffer. Sensor chip surface of flow cells 1, 4 were activated by freshly mixed 50 mmol/L N-Hydroxy succinimide (NHS) and 200 mmol/L 1-ethyl-3-(3-dimethylaminopropyl) carbodiimide hydrochloride (EDC) for 420s (10 μL/min). Afterwards, CD70 antigen diluted in 10 mmol/L NaAC (pH 4.5) was injected into flow cell 4 to achieve conjugation of the appropriate Response Unit, while flow cell 1 was set as a blank. After the amine coupling reaction, the remaining active coupling sites on chip surface were blocked by 420s injection of 1 mol/L ethanolamine hydrochloride.
(§3) The assay was performed at 25° C. and the running buffer was HBS-EP. Diluted antibodies were injected over the surface of flow cells 1 and 4 during the association phase, followed by injecting running buffer as the dissociation phase. All the data were processed using Biacore T200 Evaluation software version 3.1. Flow cell 1 and a blank injection of buffer in each cycle were used as a double reference for Response Units subtraction. Kinetic data of the interaction between the antibodies and CD70 antigen were obtained through affinity measurement.
In general terms: Surface plasmon resonance follows binding to a sensor surface in real time, without labels.

For assay [3], the target named is T3, human CD70 expressed on the cell surface of tumor cell lines (human, UniProt P32970 1-193).
T3 construct: whole, on cells
T3 sequence (looked up): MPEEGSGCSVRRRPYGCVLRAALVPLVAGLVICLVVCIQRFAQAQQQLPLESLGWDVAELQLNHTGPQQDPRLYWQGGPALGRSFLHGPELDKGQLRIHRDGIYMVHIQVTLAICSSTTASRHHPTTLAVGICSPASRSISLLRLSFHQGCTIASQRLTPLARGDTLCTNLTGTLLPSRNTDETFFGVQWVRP
Briefly: flow cytometry on U251 cells, PE anti-human Fc, MFI; same fit as Table 6, which prints it in nM. The procedure: (§4) The lead antibodies were tested for binding to renal carcinoma cells and glioblastoma cells expressing CD70 on the cell surface by flow cytometry. […] U251 cells were cultured with MEM medium containing of 10% FBS and 1% NEAA+1 mM sodium pyruvate. DBTRG-05MG cells were cultured with DMEM medium (Gibco, Cat #C11995500BT) containing of 10% FBS. Each of the lead antibodies and the controls were incubated for 30 mins with the different cell lines (3×10⁵ cells per well) in 0.2 ml FACS buffer (1×PBS with 0.1% BSA) at 4° C. Then, the cells were pelleted, washed, and incubated at 4° C. for 30 mins with 100 μl of 1:200 diluted PE-conjugated anti human Fc (Abcam, Ab98596) in FACS buffer. The cells were pelleted again, washed with PBS, resuspended in FACS buffer and analyzed by flow cytometer (Beckman, CytoFLEX).
(§5) Antibodies 2H8 and 2D2 had slightly higher binding ability to the cell lines than that of antibody 69A7.
A general note: In flow cytometry, cells or beads pass a laser one at a time.

Assay [4] addresses T3, human CD70 expressed on the cell …. Briefly: flow cytometry on Caki-1 cells, PE anti-human Fc, MFI; same fit as Table 6, which prints it in nM. How it is done:
as §4, §5

Assay [5] has the same target. Briefly: cell-based or functional assay.
Assay [6] has the same target. Put plainly: flow cytometry on DBTRG-05MG cells. The procedure:
as §4, §5

The target is the same in assay [7]. Briefly: flow cytometry on 786-O cells. The procedure:
as §4, §5

For assay [8] the target is unchanged. Put plainly: flow cytometry on U251 cells. How it is done:
as §4, §5

Assay [9] has the same target. Briefly: flow cytometry on Caki-1 cells. The procedure:
as §4, §5

For assay [10], the target named is T4, human CD70 recombinant protein (human, UniProt P32970 39-193, limits assumed).
T4 construct: May be the same reagent as ACRO CDL-H5246; also called CD70 protein
T4 sequence (looked up): T2 sequence (looked up)
Briefly: ELISA, IgG titrated on coated human CD70 recombinant protein (2 µg/ml), anti-human Fc-HRP, OD450. The procedure:
as §1

In assay [11] the target is T5, human CD70 extra-cellular domain (ECD) linked to His tag (human, UniProt P32970 39-193).
T5 construct: extracellular domain; also called Hu CD70; HU CD70; not shown: His tag
T5 sequence (looked up): T2 sequence (looked up)
Put plainly: BLI (Octet RED), antibody on anti-human Fc tips, CD70 ECD-His at 100 nM. The procedure:
Recombinant proteins consisting of human, rat, or mouse CD70 extra-cellular domain (ECD) linked to His tag was purchased (from ACRO systems). 69A7 and 2E7 (20 nM) were immobilized on anti-human IgG Fc biosensor tips (ForteBio). Binding assays using one concentration (100 nM) of recombinant protein in solution were performed using Octet RED (ForteBio). Association time was set at 180s and dissociation time was set at 300s. Binding affinity was calculated using ForteBio Data Acquisition 6.3 software. Affinity was derived by fitting the kinetic data to a 1:1 Langmuir binding model utilizing global fitting algorithms. […] 2E7 had no cross-reactivity to rat or mouse CD70 (Table 10).

The target of assay [12] is T3, human CD70 expressed on the cell …. Put plainly: flow cytometry on DBTRG-05MG cells, PE anti-human Fc, MFI; same fit as Table 6, which prints it in nM. The procedure: as §4, §5
The target is the same in assay [13]. Briefly: flow cytometry on 786-O cells, PE anti-human Fc, MFI; same fit as Table 6, which prints it in nM. How it is done:
as §4, §5

Assay [14] has as its target T2, CD70 ECD (antigen immobilized on the …). Briefly: SPR (Biacore T200), CD70 ECD on CM5 chip; lower end tied to 2D2 by the KD values of Table 8. The procedure: as §2, §3

Where a chain is given by its changes, count along the chain named.

B1: 1F6 (Vorsetuzumab), reference antibody, full IgG (antibody, V domains shown)
VH: QVQLVQSGAEVKKPGASVKVSCKASGYTFTNYGMNWVRQAPGQGLKWMGWINTYTGEPTYADAFKGRVTMTRDTSISTAYMELSRLRSDDTAVYYCARDYGDYGMDYWGQGTTVTVSS
VL: DIVMTQSPDSLAVSLGERATINCRASKSVSTSGYSFMHWYQQKPGQPPKLLIYLASNLESGVPDRFSGSGSGTDFTLTISSLQAEDVAVYYCQHSREVPWTFGQGTKVEIK
notes: also called h1F6; h1 F6
Take B1: the EC50 in [1] came to 0.00284 µg/mL. In assay [2], binding was put at a Kd of 52.3 nM, the koff stood at 0.00236 s⁻¹ and the kon was determined as 45100 M⁻¹ s⁻¹.

B2: 69A7 (parent antibody), full IgG (antibody, V domains shown)
VH: QVQLQESGPGLVKPSETLSLTCTVSGGSVSSDYYYWSWIRQPPGKGLEWLGYIYYSGSTNYNPSLKSRVTISVDTSKNQFSLKLRSVTTADTAVYYCARGDGDYGGNCFDYWGQGTLVTVSS
VL: EIVLTQSPATLSLSPGERATLSCRASQSVSSYLAWYQQKPGQAPRLLIFDASNRATGIPARFSGSGSGTDFTLTISSLEPEDFAVYYCQQRSNWPLTFGGGTKVEIK
notes: also called parent antibody 69A7
Regarding B2, the EC50 was 1.22 µg/mL in assay [3]; 1.48 µg/mL in assay [4]; 0.0104 µg/mL in assay [1]; 11.3 nM in [6]; 6.49 nM in assay [7]; 8.11 nM in [8]. Also, the EC50 in assay [9] is 9.89 nM; in [10], 0.278 µg/mL; in assay [12], 1.7 µg/mL; in [13], 0.973 µg/mL. In assay [5], the “Internalization rate (%) on 786-O” value is 64%. Also, in assay [5], the “Internalization rate (%) on Caki-1” value was determined as 27%. Further, the Kd in assay [11] came to 2.89 nM; in [2] it was 313 nM. The figures for the koff in [11] and in [2] were 0.000978 s⁻¹ and 0.00198 s⁻¹, respectively. The kon in [11] amounted to 339000 M⁻¹ s⁻¹; in [2], 6330 M⁻¹ s⁻¹.

B3: 2D2, full IgG (antibody, V domains shown)
VH: B2 VH
VL: B2 VL with S92L, N93K, W94F
For the molecule B3, the concentration for a half-maximal effect (EC50) in assay [3] was found to be 1.11 µg/mL; in assay [4], 0.896 µg/mL; in assay [1], 0.00424 µg/mL; in [6] it was 13.7 nM; in assay [7], 5.62 nM; in assay [8], 7.38 nM. Besides, the EC50 in assay [9] was found to be 5.98 nM; in assay [10] it was 0.087 µg/mL; in [12] it was 2.06 µg/mL; in assay [13], 0.842 µg/mL. Further, the “fold improved affinity against parent antibody 69A7” value in [14] lay within 3 to 8 fold. Also, in [5], the “Internalization rate (%) on 786-O” value stood at 76%. Moreover, in assay [5], the “Internalization rate (%) on Caki-1” value was 53%. This molecule also displayed a Kd in assay [2] of 89.6 nM. In addition, the koff in [2] is 0.00105 s⁻¹. In assay [2], this molecule gave a kon of 11700 M⁻¹ s⁻¹.

B4: 1H8, full IgG (antibody, V domains shown)
VH: B2 VH with Y104F, G105M, N107V
VL: B2 VL
As to B4, the EC50 in assay [3] was found to be 1.2 µg/mL; in assay [4] it was 0.847 µg/mL; in assay [1] it was 0.00326 µg/mL; in assay [6] it was 9.6 nM; in [7], 5.12 nM; in [8] it was 7.99 nM. For the same molecule, the EC50 turned out to be 5.65 nM in [9], 0.0595 µg/mL in assay [10], 1.44 µg/mL in assay [12] and 0.767 µg/mL in [13]. For the same molecule, the “Internalization rate (%) on 786-O” value in assay [5] worked out at 76%. Moreover, the “Internalization rate (%) on Caki-1” value in assay [5] was determined as 62%. The affinity in [2], expressed as Kd, was 43.7 nM. Moreover, the koff in [2] came out at 0.00112 s⁻¹. In assay [2], the kon amounted to 25600 M⁻¹ s⁻¹.

B5: 2A4, full IgG (antibody, V domains shown)
VH: B2 VH with C108V, D110P
VL: B2 VL
On to B5, for which, in assay [5], the “Internalization rate (%) on 786-O” value is 49%. In assay [5], the “Internalization rate (%) on Caki-1” value turned out to be 20%. The EC50 in [6] was 494 nM; in assay [7], 142 nM; in assay [9] it was 284 nM; in [10], 9.1 µg/mL; in assay [13], 21.3 µg/mL.

A word on the EC50: it is the concentration needed to bring the measured effect to its halfway point. The Kd is a measure of binding affinity in units of concentration. The term koff denotes a measure of how fast the partners let go of each other. The low end stands for a long-lived complex, the high end for a short-lived complex. Usually kon stands for a measure of how fast the partners come together. A low value points to slow association.
